The source of these data is article PMC12459405, “From disorder to icosahedral symmetry: How conformation-switching subunits enable RNA virus assembly” (Science Advances, 2025).

The series concerns the molecule itself. The experiment in a line: cryo-TEM + other: SAXS; in vitro assembly: purified CCMV capsid proteins mixed with in vitro transcribed RNA (C2, 2767 nt, or RF2, 2687 nt) and dialysed overnight against 0.1 M NaCl, 50 mM tris-HCl pH 7.5; SAXS at 25 uM protein, protein-to-RNA mass ratio 4.5; cryo-TEM at 75 uM protein, mass ratio 6.0.

B1: cowpea chlorotic mottle virus (CCMV) capsid protein (natural protein)
chain: MSTVGTGKLTRAQRRAAARKNKRNTRVVQPVIVEPIASGQGKAIKAWTGYSVSKWTASCAAAEAKVTSAITISLPNELSSERNKQLKVGRVLLWLGLLPSVSGTVKSCVTETQTTAAASFQVALAVADNSKDVVAAMYPEAFKGITLEQLTADLTIYLYSSAALTEGDVIVHLEVEHVRPTFDDSFTPVY
notes: Free capsid protein stored in 0.5 M NaCl, 50 mM tris-HCl pH 7.5; also called CCMV capsid proteins; CCMV coat proteins; source: purified from CCMV virions from infected cowpea leaves (Vigna unguiculata); virions disassembled by dialysis, capsid proteins recovered by ultracentrifugation
For B1, the binding result was “binds”.
